Experimental data published in PMC11094781 (Protein Science : A Publication of the Protein Society, 2024).
Each block holds one compound with its values, some of them ahead of it.

Legend:
TkTusA = target: T1, TkTusA (Thioalkalivibrio sp. K90mix, UniProt D3SF79); test: MALDI-TOF mass shift; format: biochemical; details: […] tetrathionate, […] Tris-HCl pH […]; covalent
T1 sequence (D3SF79 2-76): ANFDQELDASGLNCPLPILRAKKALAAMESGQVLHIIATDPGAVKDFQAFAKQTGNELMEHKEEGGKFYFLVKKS

[1] = target: DsrE3B from Thioalkalivibrio sp. K90mix (Thioalkalivibrio sp. K90mix); test: SEC
[2] = target: DsrE3C from Hyphomicrobium denitrificans (Hyphomicrobium denitrificans); test: SEC

Compound: O=S(=O)(O)SSS(=O)(=O)O [tetrathionate]
- MALDI-TOF mass shift (TkTusA): TusA proteins from bacteria that were examined in this study displayed reaction with tetrathionate

Compound: DsrE3B from Thioalkalivibrio sp. K90mix (natural protein)
- stoichiometry N [1]: 3

- stoichiometry N [2]: 3
Compound: DsrE3C from Hyphomicrobium denitrificans (natural protein)
